Test results published in US20230167431.

System: CCR5-targeting megaTAL (CCR5MT) expressed as a CCR5MT-tEGFR fusion (Artificial sequence)
Assay: cell_activity
Settings: tEGFR-sorted primary human CD4 T cells, donor 1; estimated InDels 58.76%; donor 2 73.54% cleaved; untreated 0%; SEQ:6 assigned to the megaTAL by inference from …

CCR5 gene megaTAL target site
activity (% cleaved DNA (T7E1)): 83
